Measurements from patent US20220017622A1 (Pfizer, published 2022).
“And” between values parts separate entries of the source, which are not always exact repeats. Equal entries are not always repeated.

T1: human B7-H4 extracellular domain (human, UniProt Q7Z7D3 29-258)
T1 construct: For SPR it says only human B7-H4 ECD; also called Hu B7-H4 ECD; huB7-H4 ECD
T1 sequence: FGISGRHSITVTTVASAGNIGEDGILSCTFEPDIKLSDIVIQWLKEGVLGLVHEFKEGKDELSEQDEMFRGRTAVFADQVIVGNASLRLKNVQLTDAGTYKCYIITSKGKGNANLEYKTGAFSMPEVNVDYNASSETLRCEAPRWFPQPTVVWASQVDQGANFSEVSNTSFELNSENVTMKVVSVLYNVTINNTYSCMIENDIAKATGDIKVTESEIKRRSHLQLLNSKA


Target: T1, human B7-H4 extracellular domain
Assay: competition ELISA on coated huB7-H4 ECD; competitor biotinylated 0052 (by series, not given)
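Also: tested antibody premixed 1:1 with biotinylated parental antibody, 2 h at room temperature on coated ECD, bound biotin detected via streptavidin-HRP, absorbance read at 450 nm.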

Row | Binder | IC50
1 | B7-H4 antibody 1080 (antibody, human IgG1, kappa, V domains shown) VH: EVQLVESGGGLVQPGGSLRLSCAVSGGSFSGYYWNWIRQPPGKGLEWIGEINHSGSATYNPSLKSRVTISVDTAKNSLYLQMNSLRAEDTAVYYCARGLYNWNVDHWGQGTLVTVSS VL: DIQMTQSPSSLSASVGDRVTITCRASQGIRNDLGWYQQKPGKAPKRLIYAASSLQSGVPSRFSGSGSGTDFTLTISSLQPEDFATYYCLQHNAYPRTFGGGTKVEIKR | 1.4 nM
2 | B7-H4 antibody 0385 (antibody, human IgG1, kappa, V domains shown) VH: QVQLQQWGAGLLKPSETLPLTCAVYGGSFSGYYWNWIRQPPGKGLEWIGEINHSGSATYNPSLKSRVTISVDTSKNHFSLKLSSVTAADTAVYFCARGLYNWNVDHWGQGTLVTVSS VL: DIQMTQSPSSLSASVGDRVTITCRASQGIRNDLGWYQQKPGKAPKRLIYAASSLQSGVPSRFSGSGSGTDFTLTISSLQPEDFATYYCLQHQSYPRTFGGGTKVEIKR | 7.87 nM
3 | B7-H4 antibody 0352 (antibody, human IgG1, kappa, V domains shown) VH: EVQLVESGGGLVQPGGSLRLSCAVSGGSFSGYYWNWIRQPPGKGLEWIGEINHSGSATYNPSLKSRFTISVDTAKNSFYLQMNSLRAEDTAVYYCARGLYNWNVDHWGQGTLVTVSS VL: DIQMTQSPSSLSASVGDRVTITCRASQGIRNDLGWYQQKPGKAPKRLIYAASSLQSGVPSRFSGSGSGTEFTLTISSLQPEDFATYYCLQHNSYPRTFGGGTKVEIKR | 15.8 nM and 12.9 nM
4 | B7-H4 antibody 0538 (antibody, human IgG1, kappa, V domains shown) VH: EVQLVESGGGLVQPGGSLRLSCAASGGSFSGYYWNWIRQPPGKGLEWIGEIDHQGSTKYNPSLKSRVTISVDTAKNSLYLQMNSLRAEDTAVYYCARGLYNWNVDHWGQGTLVTVSS VL: DIQMTQSPSSLSASVGDRVTITCRASQGIRNDLGWYQQKPGKAPKRLIYAASSLQSGVPSRFSGSGSGTDFTLTISSLQPEDFATYYCLQHNAYPRTFGGGTKVEIKR | 21.9 nM
5 | B7-H4 antibody 0368 (antibody, human IgG1, kappa, V domains shown) VH: EVQLVESGGGLVQPGGSLRLSCAASGGSFSGYYWNWVRQAPGKGLEWVAEINHSGSATYNPSLKSRFTISRDTAKNSLYLQMNSLRAEDTAVYYCARGLYNWNVDHWGQGTLVTVSS VL: DIQMTQSPSSLSASVGDRVTITCRASQGIRNDLGWYQQKPGKAPKRLIYAASSLQSGVPSRFSGSGSGTEFTLTISSLQPEDFATYYCLQHNSYPRTFGGGTKVEIKR | 8.49 nM and 8.3 nM
6 | B7-H4 antibody 0383 (antibody, human IgG1, kappa, V domains shown) VH: QVQLQQWGAGLLKPSETLPLTCAVYGGSFSGYYWNWIRQPPGKGLEWIGEINHSGSATYNPSLKSRVTISVDTSKNHFSLKLSSVTAADTAVYFCARGLYNWNVDHWGQGTLVTVSS VL: DIQMTQSPSSLSASVGDRVTITCRASQGIRNDLGWYQQKPGKAPKRLIYAASSLQSGVPSRFSGSGSGTDFTLTISSLQPEDFATYYCLQHNAYPRTFGGGTKVEIKR | 7.17 nM
7 | B7-H4 antibody 0384 (antibody, human IgG1, kappa, V domains shown) VH: QVQLQQWGAGLLKPSETLPLTCAVYGGSFSGYYWNWIRQPPGKGLEWIGEINHSGSATYNPSLKSRVTISVDTSKNHFSLKLSSVTAADTAVYFCARGLYNWNVDHWGQGTLVTVSS VL: DIQMTQSPSSLSASVGDRVTITCRASQGIRNDLGWYQQKPGKAPKRLIYAASSLQSGVPSRFSGSGSGTDFTLTISSLQPEDFATYYCLQHSSYPRTFGGGTKVEIKR | 6.91 nM
8 | B7-H4 antibody 0350 (antibody, human IgG1, kappa, V domains shown) VH: EVQLVESGGGLVQPGGSLRLSCAVSGGSFSGYYWSWVRQPPGKGLEWIGEINHSGSATYNPSLKSRFTISVDTAKNSFYLQMNSLRAEDTAVYYCARGLYNWNVDHWGQGTLVTVSS VL: DIQMTQSPSSLSASVGDRVTITCRASQGIRNDLGWYQQKPGKAPKRLIYAASSLQSGVPSRFSGSGSGTEFTLTISSLQPEDFATYYCLQHNSYPRTFGGGTKVEIKR | 17.6 nM
9 | B7-H4 antibody 0364 (antibody, human IgG1, kappa, V domains shown) VH: EVQLVESGGGLVQPGGSLRLSCAVSGGSFSGYYWNWVRQAPGKGLEWIGEINHSGSATYNPSLKSRVTISVDTAKNSFYLQMNSLRAEDTAVYYCARGLYNWNVDHWGQGTLVTVSS VL: DIQMTQSPSSLSASVGDRVTITCRASQGIRNDLGWYQQKPGKAPKRLIYAASSLQSGVPSRFSGSGSGTEFTLTISSLQPEDFATYYCLQHNSYPRTFGGGTKVEIKR | 9.13 nM and 10.8 nM
10 | B7-H4 antibody 0380 (antibody, human IgG1, kappa, V domains shown) VH: EVQLVESGGGLVQPGGSLRLSCAVSGGSFSGYYWNWVRQAPGKGLEWIGEINHSGSATYNPSLKSRFTISVDTAKNSFYLQMNSLRAEDTAVYYCARELYNWNVDHWGQGTLVTVSS VL: DIQMTQSPSSLSASVGDRVTITCRASQGIRNDLGWYQQKPGKAPKRLIYAASSLQSGVPSRFSGSGSGTEFTLTISSLQPEDFATYYCLQHNSYPRTFGGGTKVEIKR | 13.6 nM and 17.8 nM
11 | B7-H4 antibody 0376 (antibody, human IgG1, kappa, V domains shown) VH: EVQLVESGGGLVQPGGSLRLSCAVSGGSFSGYYWNWVRQAPGKGLEWIGEINHSGSATYVDSVKGRFTISRDTAKNSFYLQMNSLRAEDTAVYYCARGLYNWNVDHWGQGTLVTVSS VL: DIQMTQSPSSLSASVGDRVTITCRASQGIRNDLGWYQQKPGKAPKRLIYAASSLQSGVPSRFSGSGSGTEFTLTISSLQPEDFATYYCLQHNSYPRTFGGGTKVEIKR | 12.4 nM
12 | B7-H4 antibody 0362 (antibody, human IgG1, kappa, V domains shown) VH: EVQLVESGGGLVQPGGSLRLSCAVSGGSFSGYYWNWVRQAPGKGLEWIGEIDHQGSTKYNPSLKSRFTISVDTAKNSFYLQMNSLRAEDTAVYYCARGLYNWNVDHWGQGTLVTVSS VL: DIQMTQSPSSLSASVGDRVTITCRASQGIRNDLGWYQQKPGKAPKRLIYAASSLQSGVPSRFSGSGSGTEFTLTISSLQPEDFATYYCLQHNSYPRTFGGGTKVEIKR | 13.5 nM and 17.1 nM

Other lines, results leading:

Row | IC50 | Binder
13 | 3.5 nM | B7-H4 antibody 1081 (antibody, human IgG1, kappa, V domains shown) VH: EVQLVESGGGLVQPGGSLRLSCAVSGGSFSGYYWNWIRQPPGKGLEWIGEIDHQGSTKYNPSLKSRVTISVDTAKNSFYLQMNSLRAEDTAVYYCARGLYNWNVDHWGQGTLVTVSS VL: DIQMTQSPSSLSASVGDRVTITCRASQGIRNDLGWYQQKPGKAPKRLIYAASSLQSGVPSRFSGSGSGTDFTLTISSLQPEDFATYYCLQHNAYPRTFGGGTKVEIKR
14 | 42.3 nM | B7-H4 antibody 0546 (antibody, human IgG1, kappa, V domains shown) VH: EVQLVESGGGLVQPGGSLRLSCAVSGGSFSGYYWNWIRQPPGKGLEWIGEIDHQGSTKYNPSLKSRVTISVDTAKNSLYLQMNSLRAEDTAVYYCARELYNWNVDHWGQGTLVTVSS VL: DIQMTQSPSSLSASVGDRVTITCRASQGIRNDLGWYQQKPGKAPKRLIYAASSLQSGVPSRFSGSGSGTDFTLTISSLQPEDFATYYCLQHSSYPRTFGGGTKVEIKR
15 | 2.5 nM | B7-H4 antibody 0911 (antibody, human IgG1, kappa, V domains shown) VH: EVQLVESGGGLVQPGGSLRLSCAVSGGSFSGYYWNWIRQPPGKGLEWIGEINHSGSATYNPSLKSRVTISVDTAKNSLYLQMNSLRAEDTAVYYCARGLYNWNVDHWGQGTLVTVSS VL: DIQMTQSPSSLSASVGDRVTITCRASQGIRNDLGWYQQKPGKAPKRLIYAASSLQSGVPSRFSGSGSGTDFTLTISSLQPEDFATYYCLQHSSYPRTFGGGTKVEIKR
16 | 2.1 nM | B7-H4 antibody 1083 (antibody, human IgG1, kappa, V domains shown) VH: EVQLVESGGGLVQPGGSLRLSCAASGGSFSGYYWNWIRQPPGKGLEWIGEINHSGSATYNPSLKSRVTISVDTAKNSFYLQMNSLRAEDTAVYYCARGLYNWNVDHWGQGTLVTVSS VL: DIQMTQSPSSLSASVGDRVTITCRASQGIRNDLGWYQQKPGKAPKRLIYAASSLQSGVPSRFSGSGSGTDFTLTISSLQPEDFATYYCLQHNAYPRTFGGGTKVEIKR
17 | 33.8 nM | B7-H4 antibody 0542 (antibody, human IgG1, kappa, V domains shown) VH: EVQLVESGGGLVQPGGSLRLSCAASGGSFSGYYWNWIRQPPGKGLEWIGEIDHQGSTKYNPSLKSRVTISVDTAKNSLYLQMNSLRAEDTAVYYCARELYNWNVDHWGQGTLVTVSS VL: DIQMTQSPSSLSASVGDRVTITCRASQGIRNDLGWYQQKPGKAPKRLIYAASSLQSGVPSRFSGSGSGTDFTLTISSLQPEDFATYYCLQHSSYPRTFGGGTKVEIKR
18 | 35.5 nM | B7-H4 antibody 0544 (antibody, human IgG1, kappa, V domains shown) VH: EVQLVESGGGLVQPGGSLRLSCAASGGSFSGYYWNWIRQPPGKGLEWIGEIDHQGSTKYNPSLKSRVTISVDTAKNSLYLQMNSLRAEDTAVYYCARGLYNWNVDHWGQGTLVTVSS VL: DIQMTQSPSSLSASVGDRVTITCRASQGIRNDLGWYQQKPGKAPKRLIYAASSLQSGVPSRFSGSGSGTDFTLTISSLQPEDFATYYCLQHSSYPRTFGGGTKVEIKR
19 | 3.6 nM | B7-H4 antibody 0934 (antibody, human IgG1, kappa, V domains shown) VH: EVQLVESGGGLVQPGGSLRLSCAVSGGSFSGYYWNWVRQAPGKGLEWIGEINHSGSATYNPSLKSRVTISVDTAKNSLYLQMNSLRAEDTAVYYCARGLYNWNVDHWGQGTLVTVSS VL: DIQMTQSPSSLSASVGDRVTITCRASQGIRNDLGWYQQKPGKAPKRLIYAASSLQSGVPSRFSGSGSGTDFTLTISSLQPEDFATYYCLQHSSYPRTFGGGTKVEIKR
20 | 2 nM | B7-H4 antibody 1082 (antibody, human IgG1, kappa, V domains shown) VH: EVQLVESGGGLVQPGGSLRLSCAASGGSFSGYYWNWVRQAPGKGLEWIGEINHSGSATYNPSLKSRVTISVDTAKNSLYLQMNSLRAEDTAVYYCARGLYNWNVDHWGQGTLVTVSS VL: DIQMTQSPSSLSASVGDRVTITCRASQGIRNDLGWYQQKPGKAPKRLIYAASSLQSGVPSRFSGSGSGTDFTLTISSLQPEDFATYYCLQHNAYPRTFGGGTKVEIKR
21 | 30.1 nM | B7-H4 antibody 0540 (antibody, human IgG1, kappa, V domains shown) VH: EVQLVESGGGLVQPGGSLRLSCAVSGGSFSGYYWNWIRQPPGKGLEWIGEIDHQGSTKYNPSLKSRVTISVDTAKNSLYLQMNSLRAEDTAVYYCARELYNWNVDHWGQGTLVTVSS VL: DIQMTQSPSSLSASVGDRVTITCRASQGIRNDLGWYQQKPGKAPKRLIYAASSLQSGVPSRFSGSGSGTDFTLTISSLQPEDFATYYCLQHNAYPRTFGGGTKVEIKR
